This is an account of results in patent US20030099647A1 (Amgen, published 2003).

The experiment deals with T1, CHO expressed human interferon gamma (hIFNγ) (human, UniProt P01579 24-161, glycosylated (highly glycosylated form purified)).
T1 construct: mature; The form 'mature' is inferred from secretion into conditioned medium; also called hu-IFNγ; hu IFNγ
T1 sequence (looked up): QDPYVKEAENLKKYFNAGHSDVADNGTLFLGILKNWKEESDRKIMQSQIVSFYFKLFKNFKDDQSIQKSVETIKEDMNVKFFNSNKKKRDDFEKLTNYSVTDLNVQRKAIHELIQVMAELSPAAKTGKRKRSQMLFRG
In words: BIAcore neutralization assay; inhibition of hu IFNγ binding to IFNγ-R1. In general terms: SPR reads the build-up and loss of mass on a sensor chip optically.

B1: BS-B IgG (antibody, V domains shown)
VH: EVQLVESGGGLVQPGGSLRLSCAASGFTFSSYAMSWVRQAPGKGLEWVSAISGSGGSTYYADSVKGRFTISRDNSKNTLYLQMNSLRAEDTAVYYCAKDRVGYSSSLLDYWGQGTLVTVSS
VL: NFMLTQPHSVSESPGKTVTISCTRSSGSIASYYVQWYQQRPGSSPTTVIYEDDQRPSGVPDRFSGSIDSASNSASLTISGLQTEDEADYYCQSYDRNSLVFGGGTKLTVLG
notes: The construction is described for BS-A; the others were cloned 'using similar procedures'; The VH limits 1-121 come from the germline comparison legend; also called BS-B full-length human IgG1 antibody; not shown: human IgG1 constant region (CH1, hinge, CH2 and CH3 domains) of plasmid pDSRα19:hIgG1 CH
What is called IC50 is the concentration needed to halve the response being measured. Read a high IC50 as weaker potency. In turn, B1 showed an IC50 of 9 nM.
